The values that follow come from the Immune Epitope Database (IEDB).

Among the targets are HLA-A*02:01; HLA-A*02:06; HLA-A*02:12; HLA-A*23:01; HLA-A*26:01; HLA-A*69:01; HLA-B*27:03; HLA-B*46:01; HLA-B*51:01.
Holding throughout (assay): IEDB peptide-MHC binding, purified MHC/direct/fluorescence; filed as Kd, often an IC50 or EC50 that approximates it; ≥ and ≤ were set here for values at or beyond the usual limits of such assays
Common to all, as to conditions: source organism: Lyssavirus rabies

As to YLDNVGVHI, the Kd was not below 20 µM with HLA-A*02:01; 0.036 µM with HLA-A*02:06; 0.007 µM with HLA-A*02:12; not below 20 µM in the assay with HLA-A*23:01; not below 20 µM with HLA-A*26:01; not below 20 µM with HLA-A*69:01. Further, the dissociation constant (Kd) with HLA-B*27:03, with HLA-B*46:01 and with HLA-B*51:01 was not below 20 µM each time.

The term Kd denotes a measure of binding affinity in units of concentration.
